Measured values reported in US7534862.

How the values were obtained:
[1] = target: IL-6/sIL-6R complex (100 ng/ml IL-6 + 50 ng/ml sIL-6R) (UniProt P05231); assay: cell-based or functional assay
[2] = target: hyper-IL-6 (H-IL-6), a fusion protein comprising IL-6+sIL-6R (UniProt P08887); assay: cell-based or functional assay
Chain of hyper-IL-6 (H-IL-6), a fusion protein comprising IL-6+sIL-6R (P08887 20-323 limits assumed, chain 1 of 2): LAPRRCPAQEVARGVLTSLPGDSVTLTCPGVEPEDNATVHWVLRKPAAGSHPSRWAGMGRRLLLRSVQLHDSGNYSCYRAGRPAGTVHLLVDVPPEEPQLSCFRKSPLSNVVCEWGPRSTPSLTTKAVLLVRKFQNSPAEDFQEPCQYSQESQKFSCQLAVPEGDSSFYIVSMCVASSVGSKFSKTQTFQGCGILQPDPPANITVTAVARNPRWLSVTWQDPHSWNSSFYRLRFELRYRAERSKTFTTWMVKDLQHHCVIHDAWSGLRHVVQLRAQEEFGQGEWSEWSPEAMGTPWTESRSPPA
Chain of hyper-IL-6 (H-IL-6), a fusion protein comprising IL-6+sIL-6R (P05231 30-212 limits assumed, chain 2 of 2, further chain): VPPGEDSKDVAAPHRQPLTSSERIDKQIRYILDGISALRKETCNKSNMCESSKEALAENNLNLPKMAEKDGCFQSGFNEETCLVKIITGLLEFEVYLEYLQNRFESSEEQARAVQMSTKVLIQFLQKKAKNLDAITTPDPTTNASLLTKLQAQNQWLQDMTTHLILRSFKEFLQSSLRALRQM

Chain of IL-6/sIL-6R complex (100 ng/ml IL-6 + 50 ng/ml sIL-6R) (P05231 30-212 limits assumed, chain 1 of 2): as the sequence (P05231 30-212 limits assumed, chain 2 of 2, further chain) above
Chain of IL-6/sIL-6R complex (100 ng/ml IL-6 + 50 ng/ml sIL-6R) (P08887 20-358 limits assumed, chain 2 of 2, further chain): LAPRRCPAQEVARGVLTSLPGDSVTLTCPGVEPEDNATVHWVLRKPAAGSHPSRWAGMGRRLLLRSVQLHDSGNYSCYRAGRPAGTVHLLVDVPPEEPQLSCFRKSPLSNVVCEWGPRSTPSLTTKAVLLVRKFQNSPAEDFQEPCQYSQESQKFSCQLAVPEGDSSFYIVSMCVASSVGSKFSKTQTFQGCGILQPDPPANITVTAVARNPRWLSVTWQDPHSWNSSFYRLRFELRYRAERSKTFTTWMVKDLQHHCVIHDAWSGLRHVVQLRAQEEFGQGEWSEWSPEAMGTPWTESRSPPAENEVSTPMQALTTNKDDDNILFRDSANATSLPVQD

- factor of improvement over sgp130Fc in inhibition of BAF/gp130 proliferation (fold vs sgp130Fc) [1]: 1.5 to 3
- half-maximal [3H]-thymidine incorporation of BAF/gp130 cells (proliferation) [1]: 1 to 5 ng/mL
- STAT3 activity (relative luciferase activity, pSTAT3-TA-Luc reporter in BAF/gp130 cells) at 10 ug/ml inhibitor, 5 ng/ml H-IL-6 (% of activity with H-IL-6 alone) [2]: 18
- concentration giving half-maximal activation of STAT3 (H-IL-6-induced, luciferase reporter in BAF/gp130 cells) [2]: 2.5 µg/mL
- efficiency relative to sgp130Fc in inhibition of H-IL-6-induced STAT3 activation (fold vs sgp130Fc) [2]: 2 to 3
- factor of improvement over sgp130Fc in inhibition of BAF/gp130 proliferation (fold vs sgp130Fc) [2]: 1.5 to 3
- half-maximal [3H]-thymidine incorporation of BAF/gp130 cells (proliferation) [2]: 1 to 5 ng/mL
B1: sgp130PEG (PEGylated sgp130(D1-D3)-Pn dimer) (receptor, part only)
chain: MLTLQTWVVQALFIFLTTESTGELLDPCGYISPESPVVQLHSNFTAVCVLKEKCMDYFHVNANYIVWKTNHFTIPKEQYTIINRTASSVTFTDIASLNIQLTCNILTFGQLEQNVYGITIISGLPPEKPKNLSCIVNEGKKMRCEWDGGRETHLETNFTLKSEWATHKFADCKAKRDTPTSCTVDYSTVYFVNIEVWVEAENALGKVTSDHINFDPVYKVKPNPPHNLSVINSEELSSILKLTWTNPSIKSVIILKYNIQYRTKDASTWSQIPPEDTASTRSSFTVQDLKPFTEYVFRIRCMKEDGKGYWSDWSEEASGITYEDRP
modifications: C-terminal Pn cysteine peptide unsequenced; PEGylated; disulfide dimer
